Experimental data taken from PMC9331583.

Target: apolipoprotein E (human (endogenous in Huh7.5 and HMC3)) (UniProt P02649)
UniProt P02649, sequence (P02649 19-317): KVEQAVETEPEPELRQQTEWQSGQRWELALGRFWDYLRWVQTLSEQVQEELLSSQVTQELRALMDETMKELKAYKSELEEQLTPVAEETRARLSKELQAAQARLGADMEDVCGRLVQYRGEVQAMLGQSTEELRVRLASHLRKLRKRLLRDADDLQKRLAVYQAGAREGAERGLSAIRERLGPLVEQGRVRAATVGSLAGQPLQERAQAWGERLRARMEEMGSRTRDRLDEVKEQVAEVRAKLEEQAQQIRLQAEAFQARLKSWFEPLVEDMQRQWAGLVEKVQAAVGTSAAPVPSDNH

Question: Which decrease in infection of Huh7.5 cells (percent of cells positive for ZIKV envelope by FACS, relative to isotype Abs) by ZIKV particles pre-incubated with goat anti-ApoE Abs at 1.5 and 10 μg/mL does the source give for “Zika envelope glycoprotein (natural protein)” here?
Answer: 60%
